Paper PMC5765006, “Angiopoietins bind thrombomodulin and inhibit its function as a thrombin cofactor” (Scientific Reports, 2018)

What was measured:
[1] = target: T1, soluble extracellular domain of human TM (human, UniProt P07204 19-515); experiment: pull-down; 100 nM His-tagged TM extracellular domain with 5 nM thrombin and 0.25, 0.5 or 1.0 uM native Ang1, Ang2 or Ang4 (control), 60 minutes on ice, 0.15 M NaCl, 20 mM Tris pH 7.5, 0.1% Triton X-100, 2 mM CaCl2, 1 mg/ml BSA; TM collected on Ni-NTA beads, western blot; conditions: both partners purified
T1 construct: Thrombomodulin, human, soluble extracellular domain; also called soluble TM; source: bought: R&D Systems
T1 sequence (P07204 19-515): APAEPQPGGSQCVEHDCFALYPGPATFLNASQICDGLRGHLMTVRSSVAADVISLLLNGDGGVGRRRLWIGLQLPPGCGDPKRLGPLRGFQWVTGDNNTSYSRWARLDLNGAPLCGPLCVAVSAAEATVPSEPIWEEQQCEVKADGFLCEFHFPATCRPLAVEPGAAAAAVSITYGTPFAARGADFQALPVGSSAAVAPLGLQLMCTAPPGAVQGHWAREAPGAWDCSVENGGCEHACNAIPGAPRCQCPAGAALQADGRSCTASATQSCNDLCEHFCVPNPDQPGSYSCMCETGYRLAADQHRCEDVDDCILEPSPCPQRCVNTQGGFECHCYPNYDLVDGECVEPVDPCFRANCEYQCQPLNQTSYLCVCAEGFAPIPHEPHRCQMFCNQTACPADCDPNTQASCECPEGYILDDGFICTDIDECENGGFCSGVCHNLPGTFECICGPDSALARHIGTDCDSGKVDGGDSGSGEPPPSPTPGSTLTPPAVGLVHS

[2] = target: T2, Thrombomodulin (TM) expressed on COS cells (human, UniProt P07204 19-575); experiment: cell-surface binding assay (alkaline phosphatase-conjugated anti-human Fc, OD405); COS cells transfected with TM in 48-well plates, varying concentrations of FD-Fc in PBS/10% calf serum, 30 minutes at room temperature; specific binding = TM-transfected minus empty vector; apparent affinities; conditions: one partner purified
T2 construct: Thrombomodulin; cDNA isolated from expression libraries of HUVECs and EA.hy926 cells; Also used as the target of the functional rows on HUVECs (endogenous TM there); source: COS cells, transfected, on cells
T2 sequence (P07204 19-575): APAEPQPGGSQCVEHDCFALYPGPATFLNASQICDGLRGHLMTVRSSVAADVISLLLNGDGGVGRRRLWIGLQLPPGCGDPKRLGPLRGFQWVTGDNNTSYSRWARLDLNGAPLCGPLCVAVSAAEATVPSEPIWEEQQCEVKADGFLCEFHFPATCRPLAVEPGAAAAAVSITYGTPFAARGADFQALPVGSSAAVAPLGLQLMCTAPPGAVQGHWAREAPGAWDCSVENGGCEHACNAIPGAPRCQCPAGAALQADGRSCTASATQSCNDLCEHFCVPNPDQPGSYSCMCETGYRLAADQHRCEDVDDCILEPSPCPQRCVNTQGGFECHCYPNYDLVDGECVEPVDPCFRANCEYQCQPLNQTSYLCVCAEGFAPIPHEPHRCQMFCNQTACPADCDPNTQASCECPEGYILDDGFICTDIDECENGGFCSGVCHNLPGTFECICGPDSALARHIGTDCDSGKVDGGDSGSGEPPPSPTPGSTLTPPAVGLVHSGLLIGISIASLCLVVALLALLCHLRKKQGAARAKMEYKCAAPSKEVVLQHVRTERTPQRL

| Kd [2] [nM] | Binder | further results |
| --- | --- | --- |
|  | native human Ang1 (ligand, UniProt Q15389 16-498, looked up, Angiopoietin-1, human, 'native' as against the chimeric FD forms; also called Angiopoietin-1; source: bought: R&D Systems) HIGCSNQRRSPENSGRRYNRIQHGQCAYTFILPEHDGNCRESTTDQYNTNALQRDAPHVEPDFSSQKLQHLEHVMENYTQWLQKLENYIVENMKSEMAQIQQNAVQNHTATMLEIGTSLLSQTAEQTRKLTDVETQVLNQTSRLEIQLLENSLSTYKLEKQLLQQTNEILKIHEKNSLLEHKILEMEGKHKEELDTLKEEKENLQGLVTRQTYIIQELEKQLNRATTNNSVLQKQQLELMDTVHNLVNLCTKEGVLLKGGKREEEKPFRDCADVYQAGFNKSGIYTIYINNMPEPKKVFCNMDVNGGGWTVIQHREDGSLDFQRGWKEYKMGFGNPSGEYWLGNEFIFAITSQRQYMLRIELMDWEGNRAYSQYDRFHIGNEKQNYRLYLKGHTGTAGKQSSLILHGADFSTKDADNDNCMCKCALMLTGGWWFDACGPSNLNGMFYTAGQNHGKLNGIKWHYFKGPSYSLRSTTMMIRPLDF | binding result [1]: binds |
| ~88 | Ang1-FD-Fc (Fc fusion, human, UniProt Q15389 277-498, looked up, Used at 1 ug/ml in the screen; also called fibrinogen-like domain (FD) of Ang1 fused to a human Fc tag) REEEKPFRDCADVYQAGFNKSGIYTIYINNMPEPKKVFCNMDVNGGGWTVIQHREDGSLDFQRGWKEYKMGFGNPSGEYWLGNEFIFAITSQRQYMLRIELMDWEGNRAYSQYDRFHIGNEKQNYRLYLKGHTGTAGKQSSLILHGADFSTKDADNDNCMCKCALMLTGGWWFDACGPSNLNGMFYTAGQNHGKLNGIKWHYFKGPSYSLRSTTMMIRPLDF |  |
|  | native human Ang2 (ligand, UniProt O15123-3 19-495, looked up, Angiopoietin-2, human, 'native' as against the chimeric FD forms; also called Angiopoietin-2; source: bought: R&D Systems) YNNFRKSMDSIGKKQYQVQHGSCSYTFLLPEMDNCRSSSSPYVSNAVQRDAPLEYDDSVQRLQVLENIMENNTQWLMKLENYIQDNMKKEMVEIQQNAVQNQTAVMIEIGTNLLNQTAEQTRKLTDVEAQVLNQTTRLELQLLEHSLSTNKLEKQILDQTSEINKLQDKNSFLEKKVLAMEDKHIIQLQSIKEEKDQLQVLVSKQNSIIEELEKKIVTATVNNSVLQKQQHDLMETVNNLLTMMSTSNSKDPTVAKEEQISFRDCAEVFKSGHTTNGIYTLTFPNSTEEIKAYCDMEAGGGGWTIIQRREDGSVDFQRTWKEYKVGFGNPSGEYWLGNEFVSQLTNQQRYVLKIHLKDWEGNEAYSLYEHFYLSSEELNYRIHLKGLTGTAGKISSISQPGNDFSTKDGDNDKCICKCSQMLTGGWWFDACGPSNLNGMYYPQRQNTNKFNGIKWYYWKGSGYSLKATTMMIRPADF | percent inhibition of thrombin/TM complex formation at 1 uM Ang2 [1]: ~80% |
| ~8.3 | Ang2-FD-Fc (Fc fusion, human, UniProt O15123-3 19-495, looked up, Angiopoietin-2 (Ang2, ANGPT2), fibrinogen-like domain (FD); Detected with anti-human Fc) KEEQISFRDCAEVFKSGHTTNGIYTLTFPNSTEEIKAYCDMEAGGGGWTIIQRREDGSVDFQRTWKEYKVGFGNPSGEYWLGNEFVSQLTNQQRYVLKIHLKDWEGNEAYSLYEHFYLSSEELNYRIHLKGLTGTAGKISSISQPGNDFSTKDGDNDKCICKCSQMLTGGWWFDACGPSNLNGMYYPQRQNTNKFNGIKWYYWKGSGYSLKATTMMIRPADF |  |
